Earlier results, collected in paper PMC3159028.

Biological target: Ndel1 58-169 (Homo sapiens) (UniProt Q9GZM8)
Sequence (Q9GZM8 58-169): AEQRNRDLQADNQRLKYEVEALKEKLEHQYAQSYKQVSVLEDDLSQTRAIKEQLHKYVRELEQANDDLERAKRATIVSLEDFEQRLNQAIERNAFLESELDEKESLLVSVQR

Chain of Lis1 (P43034 whole entry): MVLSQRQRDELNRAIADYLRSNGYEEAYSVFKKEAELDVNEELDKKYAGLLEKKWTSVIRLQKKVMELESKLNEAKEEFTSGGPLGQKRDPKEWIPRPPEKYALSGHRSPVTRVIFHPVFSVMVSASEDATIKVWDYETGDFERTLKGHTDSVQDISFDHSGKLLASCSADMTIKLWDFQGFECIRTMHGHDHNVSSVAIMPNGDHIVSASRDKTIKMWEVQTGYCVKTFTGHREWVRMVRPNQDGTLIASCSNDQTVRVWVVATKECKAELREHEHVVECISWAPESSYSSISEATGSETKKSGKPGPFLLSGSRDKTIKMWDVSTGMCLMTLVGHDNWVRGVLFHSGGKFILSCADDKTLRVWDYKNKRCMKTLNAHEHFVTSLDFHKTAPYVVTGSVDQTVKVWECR

Kd: 300 nM
Substance: Lis1 (from UniProt P43034)
